Laboratory results reported in article PMC2820766 (The Journal of Biological Chemistry, 2009).
Substitutions are numbered along the chain they refer to. Names and notes keep the numbering of the source.

B1: MscSΔW L105W (W16Y/W240F/W251F/L105W), small mechanosensitive channel MscS-H6 (natural protein)
chain: MEDLNVVDSINGAGSYLVANQALLLSYAVNIVAALAIIIVGLIIARMISNAVNRLMISRKIDATVADFLSALVRYGIIAFTLIAALGRVGVQTASVIAVLGAAGWAVGLALQGSLSNLAAGVLLVMFRPFRAGEYVDLGGVAGTVLSVQIFSTTMRTADGKIIVIPNGKIIAGNIINFSREPVRRNEFIIGVAYDSDIDQVKQILTNIIQSEDRILKDREMTVRLNELGASSINFVVRVFSNSGDLQNVYFDVLERIKREFDAAGISFPYPQMDVNFKRVKEDKAA
B2: MscSΔW L105W/A106V (W16Y/W240F/W251F/L105W/A106V), small mechanosensitive channel MscS-H6 (natural protein)
chain: B1 chain with A106V

Target: the molecule itself
Experiment: SEC

Protein | stoichiometry N
B1 | 7
B2 | 7
